The data set relates to MS2 coat protein. Put plainly: apparent KD of MS2 coat protein; designed switch direction (-1 OFF switch, 1 ON switch): -1; higher = weaker reporter binding. The method in brief: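 RNA switches sharing common flanks were transcribed by stalled E. coli RNA polymerase on Illumina chips. A doubling series of SNAP-549-labelled MS2 coat protein, from 0.7 or 1.5 nM to 3 µM, was applied in Tris-HCl pH 7.5 buffer with KCl, MgCl2, BSA, DTT, tRNA and Tween-20. Each step lasted 0.8–1.5 h at the bottom of the series and 10–20 min at the top. Normalised cluster fluorescence was curve-fitted, giving apparent KD as the per-design median over clusters.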

[1] abbreviates: input ligand: microRNA oligo, concentration not stated.

In the case of “ACAUGAGGAUCACCCAUGUCCGGCUGGUCCGUCUCGGCUGUCGAGGAUAUAGCUUGGUGUCCGCGCUAGAAGGUGGGAGCCGGC [Aenatbe mod 71] (Eterna round: R96, puzzle: Exclusion NG 3)”, the “apparent KD of MS2 coat protein” value is, setting by setting: (input ligand: FMN 200 uM) 166 nM; under setting [1], 105 nM; (input ligand: none) 154 nM.
For “ACAUGAGGAUCACCCAUGUCCGUCUGGUCUGUCUCGGCUGUCGAGGAUAUAGCCCGGUAUCCGCGCUAGAAGGCGGGAGUCGGC [Aenatbe mod 97] (Eterna round: R96, puzzle: Exclusion NG 3)”, the “apparent KD of MS2 coat protein” value runs as follows: (input ligand: FMN 200 uM) 23.1 nM; under setting [1], 24.5 nM; (input ligand: none) 29.6 nM.
On to “ACAUGAGGAUCACCCAUGUCGAGUACAUGAGGAUCACCCAUGUAGGAUAUGGUUCGCUUUGCGUGCUAGAAGGAUAUGUGAUGA [salish99_ExNG3_r04_512] (Eterna round: R96, puzzle: Exclusion NG 3)”, for which the “apparent KD of MS2 coat protein” value worked out at 488 nM (input ligand: FMN 200 uM), 229 nM under setting [1] and 326 nM (input ligand: none).
Take “ACAUGAGGAUCACCCAUGUCGAGUACAUGAGGAUCACCCAUGUAGGAUAUGGUUCGCUUUGCGUGCUAGAAGGAUAUGUGUUGA [salish99_ExNG3_r04_510] (Eterna round: R96, puzzle: Exclusion NG 3)”: the “apparent KD of MS2 coat protein” value (input ligand: FMN 200 uM) was 321 nM, the “apparent KD of MS2 coat protein” value under setting [1] is 148 nM and the “apparent KD of MS2 coat protein” value (input ligand: none) stood at 226 nM.
As to “ACAUGAGGAUCACCCAUGUGAAAAGAAUGGCUGACACAGAGAUAGGAUAUAUGUGCAUAUCUAACAUAGAAGGGUCAUGACUGG [Deportation 79 - Jieux - Exclusion NG 3] (Eterna round: R96, puzzle: Exclusion NG 3)”, the “apparent KD of MS2 coat protein” value runs as follows: (input ligand: FMN 200 uM) 28.6 nM; under setting [1], 21.6 nM; (input ligand: none) 33.1 nM.
On to “ACAUGAGGAUCACCCAUGUGACAAGAAUGGCUGAUACAGAGAUAGGAUAUAGGUGCAUAUCUAACCUAGAAGGGUCAUGACUGG [Deportation 75 - Jieux - Exclusion NG 3] (Eterna round: R96, puzzle: Exclusion NG 3)”, for which the “apparent KD of MS2 coat protein” value by setting is: (input ligand: FMN 200 uM) 53.4 nM; under setting [1], 34.3 nM; (input ligand: none) 37 nM.
For “ACAUGAGGAUCACCCAUGUGACCACGAUGGCUGAUGUAGACCUAGGAUAUGAGUGAAUAUCUAUCUCAGAAGGAGGUUGACUGG [Deportation 50 - Jieux - Exclusion NG 3] (Eterna round: R96, puzzle: Exclusion NG 3)”, in that order: 46.7 nM, 52.1 nM and 61.2 nM.
Take “ACAUGAGGAUCACCCAUGUGACCACGAUGGCUGAUGUAGAGACAGGAUAUGUGUGAAUAUCUAUCACAGAAGGGUCUUGACUGG [Deportation 54 - Jieux - Exclusion NG 3] (Eterna round: R96, puzzle: Exclusion NG 3)”: the “apparent KD of MS2 coat protein” value was determined as 35.3 nM (input ligand: FMN 200 uM), 25.7 nM under setting [1] and 31.3 nM (input ligand: none).
On to “ACAUGAGGAUCACCCAUGUUCGGCUGGUCCGUUUCGGCUGUCGAGGAUAUAGUUCGGUGUCCGCGCUAGAAGGCGGGAGCUGGC [Aenatbe mod 64] (Eterna round: R96, puzzle: Exclusion NG 3)”, for which the “apparent KD of MS2 coat protein” value reads like this: (input ligand: FMN 200 uM) 167 nM; under setting [1], 39 nM; (input ligand: none) 68.5 nM.
Taken in the same sequence, the figures for “ACAUGUAAUGUAGGAUAUUUUACACAUGAGGAUCACCCAUGUGACCAGAGGCAUUGCUAUGAGUAAAAGAAGGGUAUGUACAUG [Ex NG2 #58] (Eterna round: R96, puzzle: Exclusion NG 2)” were 47 nM, 27.8 nM and 42.3 nM.
On to “ACAUGUAUUGCAGGAUAUGGGACACAUGAGGAUCACCCAUGUGACUACAUGUCAUACCACGCGUCUCAGAAGGGUAUGUACAUG [Ex NG2 #39] (Eterna round: R96, puzzle: Exclusion NG 2)”, for which the “apparent KD of MS2 coat protein” value came to 27.7 nM (input ligand: FMN 200 uM), 14 nM under setting [1] and 21.5 nM (input ligand: none).
As to “ACAUGUGUUGUAGGAUAUAGGACACAUGAGGAUCACCCAUGUGGAUUCAUGUCUAAGGAAGCGUCCUAGAAGGACGACAACAUG [Ex NG2 #26] (Eterna round: R96, puzzle: Exclusion NG 2)”, the “apparent KD of MS2 coat protein” value (input ligand: FMN 200 uM) amounted to 29.1 nM, the “apparent KD of MS2 coat protein” value under setting [1] came out at 16.3 nM and the “apparent KD of MS2 coat protein” value (input ligand: none) amounted to 20 nM.
As to “ACAUUGAUUGUGAGGAUAUCGAUGUGAUGGUAUGUCGAGAAGGCACAUGAGGAUCACCCAUGUGGGUUGUAGCA [JR_BMEx4_Sub035] (Eterna round: R97, puzzle: Brourd's mod of Exclusion 4)”, the “apparent KD of MS2 coat protein” value was found to be 291 nM (input ligand: FMN 200 uM) and 95.2 nM (input ligand: none).
With “ACCAAUCAUGUAGGAUAUGCGUGGCGAAGCUAUGCAGAAGGACAUGAGGAUCACCCAUGUGCUUCCGUCUGCGUACAGACGGUA [Mat - Exclusion NG 1 - Mod of JL - D17] (Eterna round: R96, puzzle: Exclusion NG 1)”, the “apparent KD of MS2 coat protein” value by setting is: (input ligand: FMN 200 uM) 49.2 nM; under setting [1], 38.3 nM; (input ligand: none) 92.3 nM.
With “ACCAUGUCUGAGGAUAUGCAAGCGUACCACGCGGUAGAAGGCAGCACAUGAGGAUCACCCAUGUGGGUAUGCUA [Inanenqu] (puzzle: Exclusion 6)”, the “apparent KD of MS2 coat protein” value (Eterna round: R95, input ligand: FMN 200 uM) stood at 15.3 nM; the “apparent KD of MS2 coat protein” value (Eterna round: R95, input ligand: microRNA oligo, concentration not stated) came out at 9.92 nM; the “apparent KD of MS2 coat protein” value (Eterna round: R95, input ligand: none) is 14.8 nM.
Take “ACCGAUGUGCAAGGAUAUGACAUGAGGAUCACCCAUGUCAAAACAAGAAGAACGGGUGUGCCUCCUUAGAAGGUGCACAAACGA [Eternabot solution 2] (Eterna round: R96, puzzle: Exclusion NG 2)”: the “apparent KD of MS2 coat protein” value (input ligand: FMN 200 uM) was 26.1 nM, the “apparent KD of MS2 coat protein” value under setting [1] is 17.1 nM and the “apparent KD of MS2 coat protein” value (input ligand: none) worked out at 24 nM.
For the sequence “ACCGUGUGAGGAUAUCCGUAGCUGAGGCACCUCGCAAACAUGGAGAAGGCACAUGAGGAUCACCCAUGUGAACC [Eternabot (Original) Solution 27] (Eterna round: R97, puzzle: Exclusion 4)”, the “apparent KD of MS2 coat protein” value (input ligand: FMN 200 uM) worked out at 47.1 nM and the “apparent KD of MS2 coat protein” value (input ligand: none) was 23.8 nM.
For the sequence “ACCUCACAUGAGGAUCACCCAUGUCAGGAUAUAAUUUCAAACAUCAAUCGCGGCGCUGAGAGAAGGGUCAAAAC (Eterna round: R97, puzzle: Exclusion 1)”, the “apparent KD of MS2 coat protein” value runs as follows: (input ligand: FMN 200 uM) 15.7 nM; (input ligand: none) 15.9 nM.
On to “ACCUCACUUGAGGAUCACCCAAGUCAGGAUAUACUCGUUUGCCGAAAGACGCGGCAUUGUAGAAGGGACGGGUU [Raortiza] (Eterna round: R97, puzzle: Exclusion 1)”, for which the “apparent KD of MS2 coat protein” value is, setting by setting: (input ligand: FMN 200 uM) 26.6 nM; (input ligand: none) 15.5 nM.
“ACCUUACUGGUCAGGAUAUACAGUCUUUGGUGUGUGUAGAAGGGACAUGAGGAUCACCCAUGUAGGUUGCAGUA [alecazam60] (Eterna round: R97, puzzle: Brourd's mod of Exclusion 4)”: the “apparent KD of MS2 coat protein” value by setting is: (input ligand: FMN 200 uM) 77.6 nM; (input ligand: none) 67.7 nM.
